Source: US20220088146A1, “Melanocortin Receptor-Specific Peptide Formulations and Methods for Gastrointestinal Tract-Specific Delivery” (Palatin Technologies, Inc., priority 2018, published 2022)
Bridge positions count the residues as written; N and C are the ends. Square brackets hold non-standard residues; d marks the D form. dPhe(3-Cl) = N[C@H](Cc1cccc(Cl)c1)C(=O)O; dPhe(4-Cl) = N[C@H](Cc1ccc(Cl)cc1)C(=O)O; dPhe(4-Me) = Cc1ccc(C[C@@H](N)C(=O)O)cc1; dPhe(2-Cl) = N[C@H](Cc1ccccc1Cl)C(=O)O; dPhe(4-F) = N[C@H](Cc1ccc(F)cc1)C(=O)O; dPhe(2-F) = N[C@H](Cc1ccccc1F)C(=O)O; Nle = CCCC[C@H](N)C(=O)O; Orn = NCCC[C@H](N)C(=O)O; Dab = NCC[C@H](N)C(=O)O

Experiments:
[1] = molecular target: melanocortin-3 receptor (UniProt P41968); experiment: cell-based or functional assay
[2] = molecular target: melanocortin-5 receptor (UniProt P33032); experiment: cell-based or functional assay
[3] = molecular target: human melanocortin-4 receptor (human) (UniProt P32245); experiment: cell-based or functional assay
[4] = molecular target: melanocortin-2 receptor (UniProt Q01718); experiment: cell-based or functional assay
[5] = molecular target: human melanocortin-1 receptor (human) (UniProt Q01726); experiment: cell-based or functional assay
[6] = molecular target: human melanocortin-4 receptor (human) (UniProt P32245); experiment: [I125]-NDP-α-MSH competition, hMC4r HEK-293 membranes
[7] = molecular target: human melanocortin-1 receptor (human) (UniProt Q01726); experiment: [I125]-NDP-α-MSH competition, hMC1r HEK-293 membranes

Sequence of human melanocortin-1 receptor (human) (Q01726 whole entry): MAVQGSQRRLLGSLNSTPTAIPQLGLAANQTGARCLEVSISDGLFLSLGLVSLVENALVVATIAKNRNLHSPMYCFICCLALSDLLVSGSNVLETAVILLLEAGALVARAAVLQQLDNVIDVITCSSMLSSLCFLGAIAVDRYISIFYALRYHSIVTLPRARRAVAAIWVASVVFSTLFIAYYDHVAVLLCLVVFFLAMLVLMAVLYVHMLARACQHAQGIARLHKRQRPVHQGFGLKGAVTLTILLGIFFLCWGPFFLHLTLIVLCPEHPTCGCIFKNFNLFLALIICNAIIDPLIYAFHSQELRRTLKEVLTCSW
Sequence of human melanocortin-4 receptor (human) (P32245 whole entry): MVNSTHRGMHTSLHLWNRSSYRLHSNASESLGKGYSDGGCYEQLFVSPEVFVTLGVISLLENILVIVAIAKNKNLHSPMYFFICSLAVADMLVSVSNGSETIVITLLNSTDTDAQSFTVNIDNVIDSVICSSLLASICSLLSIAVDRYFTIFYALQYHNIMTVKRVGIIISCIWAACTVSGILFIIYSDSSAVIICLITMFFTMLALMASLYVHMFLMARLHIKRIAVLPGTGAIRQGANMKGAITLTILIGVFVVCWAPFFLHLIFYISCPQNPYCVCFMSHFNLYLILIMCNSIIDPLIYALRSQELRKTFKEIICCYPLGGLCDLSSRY
Sequence of melanocortin-2 receptor (Q01718 whole entry): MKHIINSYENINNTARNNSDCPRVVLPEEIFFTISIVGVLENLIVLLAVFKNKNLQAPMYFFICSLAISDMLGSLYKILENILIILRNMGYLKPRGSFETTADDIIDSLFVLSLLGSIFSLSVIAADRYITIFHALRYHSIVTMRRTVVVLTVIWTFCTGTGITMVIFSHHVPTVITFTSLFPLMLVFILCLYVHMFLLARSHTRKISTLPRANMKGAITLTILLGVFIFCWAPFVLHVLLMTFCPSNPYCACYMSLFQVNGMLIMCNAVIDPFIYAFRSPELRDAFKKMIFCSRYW
Sequence of melanocortin-5 receptor (P33032 whole entry): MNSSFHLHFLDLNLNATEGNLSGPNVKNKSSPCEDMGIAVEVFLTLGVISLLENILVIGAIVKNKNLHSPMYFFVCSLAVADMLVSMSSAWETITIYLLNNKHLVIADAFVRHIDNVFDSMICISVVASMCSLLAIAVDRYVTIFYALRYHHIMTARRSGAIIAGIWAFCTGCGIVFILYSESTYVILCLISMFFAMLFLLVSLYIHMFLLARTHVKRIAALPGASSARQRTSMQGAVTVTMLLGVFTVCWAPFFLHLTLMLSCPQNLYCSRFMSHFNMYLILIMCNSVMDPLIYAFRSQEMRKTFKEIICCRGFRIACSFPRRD
Sequence of melanocortin-3 receptor (P41968 whole entry): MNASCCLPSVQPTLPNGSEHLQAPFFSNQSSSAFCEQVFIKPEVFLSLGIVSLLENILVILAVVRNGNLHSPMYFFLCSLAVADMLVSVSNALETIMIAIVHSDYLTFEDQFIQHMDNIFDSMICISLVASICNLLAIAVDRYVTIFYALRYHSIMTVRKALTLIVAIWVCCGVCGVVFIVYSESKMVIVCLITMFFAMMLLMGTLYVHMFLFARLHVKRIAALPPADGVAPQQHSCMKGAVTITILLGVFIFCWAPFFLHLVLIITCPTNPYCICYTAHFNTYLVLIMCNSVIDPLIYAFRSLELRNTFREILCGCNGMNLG

Substance | Ki [6] [nM] | MC-1 Emax (average; cAMP HBL) [5] [%] | Ki [7] [nM] | MC-1 EC50 (average; cAMP HBL) [5] [nM] | also measured
ACTH (adrenocorticotropic hormone) (from UniProt P01189 138-176) (ligand) | – | – | – | – | Functional - CEREP (EC50; nM) [1]: 390 nM; Functional - CEREP (EC50; nM) [2]: 4100 nM; Functional - CEREP (EC50; nM) [3]: 350 nM; Functional - CEREP (EC50; nM) [4]: 4.8 nM; Functional - CEREP (EC50; nM) [5]: 980 nM
Ac-D-Phe-cyclo(Glu-His-D-Phe-Arg-Dab)-Trp-NH2 (peptide) | 535 | 75 | – | – | –
Ac-Nle-cyclo(Dab-His-D-Phe-Arg-Dab)-Trp-NH2 (peptide) | 380 | 92 | 0.015 | 0.009 | –
Ac-Nle-cyclo(Dab-His-D-Phe-Arg-Dap)-Trp-NH2 (peptide) | 325 | 78 | 0.025 | 0.006 | –
Ac-Nle-cyclo(Dap-His-D-Phe-Arg-Dab)-Trp-NH2 (peptide) | 860 | 85 | 0.065 | 0.016 | –
Ac-Nle-cyclo(Dap-His-D-Phe-Arg-Dap)-Trp-NH2 (peptide) | 680 | 70 | 0.03 | 0.007 | –
Ac-Nle-cyclo(Glu-Ala-D-Phe-Arg-Dab)-Trp-NH2 (peptide) | 455 | 86 | – | – | –
Ac-Nle-cyclo(Glu-Arg-D-Phe-Arg-Dab)-Trp-NH2 (peptide) | 20 | 100 | – | – | –
Ac-Nle-cyclo(Glu-Cit-D-Phe-Arg-Dab)-Trp-NH2 (peptide) | 98 | 97 | 0.45 | 0.065 | –
Ac-Nle-cyclo(Glu-Dab-D-Phe-Arg-Dab)-Trp-NH2 (peptide) | 98 | 108 | 0.05 | 0.008 | –
Ac-Nle-cyclo(Glu-His-D-Phe-Arg-Dab)-D-Nal 1-NH2 (peptide) | 2 | 73 | 0.1 | 0.008 | –
Ac-Nle-cyclo(Glu-His-D-Phe-Arg-Dab)-D-Nal 2-NH2 (peptide) | 0.095 | 69 | 0.02 | 0.005 | –
Ac-Nle-cyclo(Glu-His-D-Phe-Arg-Dab)-D-Trp-NH2 (peptide) | 33 | 93 | 0.55 | 0.025 | –
Ac-Nle-cyclo(Glu-His-D-Phe-Arg-Dab)-Nal 1-NH2 (peptide) | 0.75 | 72 | 0.005 | 0.002 | –
Ac-Nle-cyclo(Glu-His-D-Phe-Arg-Dab)-Nal 2-NH2 (peptide) | 3 | 83 | 0.01 | – | MC-1 EC50 (average; cAM PHBL) [5]: 0.004 nM
Ac-Nle-cyclo(Glu-His-D-Phe-Arg-Dab)-Trp-NH2 (peptide) | 110 | 95 | – | – | –
Ac-Nle-cyclo(Glu-His-D-Phe-Arg-Dab)-Trp-OH (peptide) | 10000 | 79 | 2 | – | –
Ac-Nle-cyclo(Glu-His-D-Phe-Arg-Dap)-Trp-NH2 (peptide) | 510 | 91 | – | – | Functional - CEREP (EC50; nM) [3]: 510 nM

Substance | Ki [6] [nM] | MC-1 Emax (average; cAMP HBL) [5] [%] | Ki [7] [nM] | MC-1 EC50 (average; cAMP HBL) [5] [nM] | also measured
Ac-Nle-cyclo(Glu-His-D-Phe-Arg-Dap)-Trp-OH (peptide) | 4700 | 81 | 1 | 0.107 | –
Ac-Nle-cyclo(Glu-His-D-Phe-Arg-Orn)-Trp-NH2 (peptide) | 295 | 91 | – | – | –
Ac-Nle-cyclo(Glu-Lys-D-Phe-Arg-Dab)-Trp-NH2 (peptide) | 95 | 108 | – | – | –
Ac-Nle-cyclo(Glu-Orn-D-Phe(3,4-F)-Arg-Dab)-NH2 (peptide) | 10000 | 97 | 40 | 1 | –
Ac-Nle-cyclo(Glu-Orn-D-Phe(4-OMe)-Arg-Dab)-NH2 (peptide) | 10000 | 99 | 2 | 0.12 | –
Ac-Nle-cyclo(Glu-Orn-D-Phe-Arg-Dab)-Trp-NH2 (peptide) | 45 | 109 | 0.015 | 0.002 | –
Ac-Nle-cyclo(Glu-Pro-D-Phe-Arg-Dab)-NH2 (peptide) | 10000 | – | 2250 | – | –
Ac-[Nle]EH[dF]A[Dab]-NH2 (lactam 2-6) | 10000 | 73 | 645 | 44 | MC-1 EC50 (average; cAMPHBL) [5]: 44 nM
Ac-[Nle]EH[dF]R[Dab]-NH2 (lactam 2-6) | 10000 | 85 | 7 | 0.32 | MC-1 EC50 (average; cAM PHBL) [5]: 0.32 nM
Ac-[Nle]EH[dF][Dab]-NH2 (lactam 2-5) | 10000 | 51 | 10000 | – | –
Ac-[Nle]E[Orn][dF]R[Dab]-NH2 (lactam 2-6) | 3620 | 102 | 4 | 0.5 | –
Ac-[Nle]E[Orn][dPhe(2-Cl)]R[Dab]-NH2 (lactam 2-6) | 10000 | 88 | 30 | 1 | –
Ac-[Nle]E[Orn][dPhe(2-F)]R[Dab]-NH2 (lactam 2-6) | 10000 | 95 | 18 | 0.8 | –
Ac-[Nle]E[Orn][dPhe(3-Cl)]R[Dab]-NH2 (lactam 2-6) | 10000 | 86 | 35 | 2 | –
Ac-[Nle]E[Orn][dPhe(4-Cl)]R[Dab]-NH2 (lactam 2-6) | 1240 | 100 | 2 | 0.1 | –
Ac-[Nle]E[Orn][dPhe(4-F)]R[Dab]-NH2 (lactam 2-6) | 10000 | 102 | 20 | 1 | –
Ac-[Nle]E[Orn][dPhe(4-Me)]R[Dab]-NH2 (lactam 2-6) | 10000 | 96 | 3 | 0.076 | –
